doi:10.1101/2023.04.27.538529
pIC50: −log10 of the molar value.

Key:
[1] = biological target: mouse WT SH2B3 SH2 domain (residues 324-446) (mouse) (UniProt O09039); assay: SPR
[2] = biological target: mouse E372K SH2B3 SH2 domain (residues 324-446) (mouse) (UniProt O09039); assay: SPR

- pIC50 [1]: 6.90
- pIC50 [2]: 6.16
Substance: JAK2 pY813 peptide
